Assay results reported in article PMC9482650, “Quantitative fragmentomics allow affinity mapping of interactomes” (Nature Communications, 2022).

T1: CARD11, Q9BXL7
T1 sequence (Q9BXL7 662-765, limits assumed, looked up): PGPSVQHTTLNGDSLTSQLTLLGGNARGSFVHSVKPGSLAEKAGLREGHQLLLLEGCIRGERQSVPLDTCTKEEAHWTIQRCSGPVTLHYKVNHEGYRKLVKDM

T2: RAPGEF6, Q8TEU7
T2 sequence (Q8TEU7 525-625, limits assumed, looked up): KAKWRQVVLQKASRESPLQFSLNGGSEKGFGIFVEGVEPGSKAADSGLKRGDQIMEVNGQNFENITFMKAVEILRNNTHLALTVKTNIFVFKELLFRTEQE

T3: GRIP1_3, Q9Y3R0
T3 sequence (Q9Y3R0 247-346, limits assumed, looked up): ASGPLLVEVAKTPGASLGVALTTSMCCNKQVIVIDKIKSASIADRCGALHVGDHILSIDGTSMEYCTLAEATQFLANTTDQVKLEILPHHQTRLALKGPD

T4: NHERF3_3, Q5T2W1
T4 sequence (Q5T2W1 238-333, limits assumed, looked up): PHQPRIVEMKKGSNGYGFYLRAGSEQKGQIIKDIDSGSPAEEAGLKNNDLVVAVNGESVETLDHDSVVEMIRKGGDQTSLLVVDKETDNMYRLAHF

T5: DFNB31_1, Q9P202
T5 sequence (Q9P202 135-233, limits assumed, looked up): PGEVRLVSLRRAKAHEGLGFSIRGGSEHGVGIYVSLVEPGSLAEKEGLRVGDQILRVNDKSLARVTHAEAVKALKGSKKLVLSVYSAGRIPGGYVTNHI

T6: APBA3_1, O96018
T6 sequence (O96018 389-490, limits assumed, looked up): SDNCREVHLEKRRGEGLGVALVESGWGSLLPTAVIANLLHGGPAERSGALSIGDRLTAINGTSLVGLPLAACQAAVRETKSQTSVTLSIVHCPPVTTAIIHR

T7: LIN7C, Q9NUP9
T7 sequence (Q9NUP9 88-185, limits assumed, looked up): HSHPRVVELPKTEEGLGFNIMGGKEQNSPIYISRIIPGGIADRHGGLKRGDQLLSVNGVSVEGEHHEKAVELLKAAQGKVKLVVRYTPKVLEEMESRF

T8: HTRA4, P83105
T8 sequence (P83105 378-476, limits assumed, looked up): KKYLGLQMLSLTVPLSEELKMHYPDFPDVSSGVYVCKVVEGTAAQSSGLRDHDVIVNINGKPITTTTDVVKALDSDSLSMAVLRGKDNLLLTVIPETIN

T9: SHANK1, Q9Y566
T9 sequence (Q9Y566 658-767, limits assumed, looked up): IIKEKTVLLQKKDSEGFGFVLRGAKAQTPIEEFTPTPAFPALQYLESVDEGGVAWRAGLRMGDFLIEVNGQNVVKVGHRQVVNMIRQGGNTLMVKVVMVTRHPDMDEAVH


Assays:
Assay in all cases: holdup assay
Parameters in all cases: key: below the threshold = too weak to quantify, mostly under pKd 3.1 to 4
Conditions in all cases: plain residues with an end cap or a label only (N-terminal biotin on a linker: ado-ado)
[1] = molecular target: T1, CARD11, Q9BXL7
[2] = molecular target: T2, RAPGEF6, Q8TEU7
[3] = molecular target: Inadl_6, Q8NI35
Inadl_6, Q8NI35, sequence (Q8NI35 1058-1167): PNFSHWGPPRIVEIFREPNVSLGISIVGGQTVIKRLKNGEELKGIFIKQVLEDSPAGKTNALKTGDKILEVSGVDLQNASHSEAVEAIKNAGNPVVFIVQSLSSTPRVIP

[4] = molecular target: T3, GRIP1_3, Q9Y3R0
[5] = molecular target: SNX27, Q96L92
[6] = molecular target: Inadl_2, Q8NI35
Inadl_2, Q8NI35, sequence (Q8NI35 238-335): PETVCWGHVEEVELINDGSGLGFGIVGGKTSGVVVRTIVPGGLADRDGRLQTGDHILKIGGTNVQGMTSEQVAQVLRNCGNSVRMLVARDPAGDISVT

[7] = molecular target: T4, NHERF3_3, Q5T2W1
[8] = molecular target: T5, DFNB31_1, Q9P202
[9] = molecular target: DLG4_1, P78352
DLG4_1, P78352, sequence (P78352 62-152): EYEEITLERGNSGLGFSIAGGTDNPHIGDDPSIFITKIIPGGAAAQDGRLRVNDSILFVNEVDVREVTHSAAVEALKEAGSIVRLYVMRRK

[10] = molecular target: T6, APBA3_1, O96018
[11] = molecular target: T7, LIN7C, Q9NUP9
[12] = molecular target: LDB3, O75112
LDB3, O75112, sequence (O75112 1-94): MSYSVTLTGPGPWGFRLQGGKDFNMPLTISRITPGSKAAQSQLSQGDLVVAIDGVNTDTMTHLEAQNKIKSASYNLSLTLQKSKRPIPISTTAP

[13] = molecular target: MAGI3_2, Q5TCQ9
MAGI3_2, Q5TCQ9, sequence (Q5TCQ9 398-503): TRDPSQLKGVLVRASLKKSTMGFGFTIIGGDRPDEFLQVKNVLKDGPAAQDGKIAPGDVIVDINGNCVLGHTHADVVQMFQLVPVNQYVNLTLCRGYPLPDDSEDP

[14] = molecular target: T8, HTRA4, P83105
[15] = molecular target: GRID2IP_1, A4D2P6
GRID2IP_1, A4D2P6, sequence (A4D2P6 1-87): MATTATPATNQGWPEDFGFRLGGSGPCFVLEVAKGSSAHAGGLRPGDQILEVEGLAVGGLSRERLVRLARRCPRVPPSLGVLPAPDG

[16] = molecular target: FRMPD2_2, Q68DX3
FRMPD2_2, Q68DX3, sequence (Q68DX3 944-1038): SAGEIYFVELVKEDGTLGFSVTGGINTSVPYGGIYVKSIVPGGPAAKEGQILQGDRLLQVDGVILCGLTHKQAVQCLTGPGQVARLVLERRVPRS

[17] = molecular target: GRASP, Q7Z6J2
GRASP, Q7Z6J2, sequence (Q7Z6J2 96-193): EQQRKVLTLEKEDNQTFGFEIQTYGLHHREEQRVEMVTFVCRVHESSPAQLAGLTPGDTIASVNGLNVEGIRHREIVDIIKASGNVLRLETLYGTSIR

[18] = molecular target: NHERF2_2, Q15599
NHERF2_2, Q15599, sequence (Q15599 142-238): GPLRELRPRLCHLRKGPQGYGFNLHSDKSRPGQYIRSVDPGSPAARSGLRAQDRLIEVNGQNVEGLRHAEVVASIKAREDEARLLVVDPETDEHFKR

[19] = molecular target: GRIP2_7, Q9C0E4
GRIP2_7, Q9C0E4, sequence (Q9C0E4 934-1023): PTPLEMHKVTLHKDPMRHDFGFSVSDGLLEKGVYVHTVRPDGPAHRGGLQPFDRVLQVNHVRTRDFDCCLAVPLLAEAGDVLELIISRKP

[20] = molecular target: PARD3_3, Q8TEW0
PARD3_3, Q8TEW0, sequence (Q8TEW0 582-685): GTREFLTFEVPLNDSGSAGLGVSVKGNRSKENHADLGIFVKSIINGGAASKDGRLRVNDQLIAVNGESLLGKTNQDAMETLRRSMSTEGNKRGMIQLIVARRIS

[21] = molecular target: GRIP2_4, Q9C0E4
GRIP2_4, Q9C0E4, sequence (Q9C0E4 446-548): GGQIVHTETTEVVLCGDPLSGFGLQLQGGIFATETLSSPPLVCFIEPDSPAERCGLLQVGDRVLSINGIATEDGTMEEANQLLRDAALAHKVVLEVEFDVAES

[22] = molecular target: MAGI2_5, Q86UL8
MAGI2_5, Q86UL8, sequence (Q86UL8 915-1017): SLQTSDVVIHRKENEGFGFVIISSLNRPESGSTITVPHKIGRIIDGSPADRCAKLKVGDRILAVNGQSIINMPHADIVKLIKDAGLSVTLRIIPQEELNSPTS

[23] = molecular target: T9, SHANK1, Q9Y566
[24] = molecular target: DLG2_2, Q15700
DLG2_2, Q15700, sequence (Q15700 189-283): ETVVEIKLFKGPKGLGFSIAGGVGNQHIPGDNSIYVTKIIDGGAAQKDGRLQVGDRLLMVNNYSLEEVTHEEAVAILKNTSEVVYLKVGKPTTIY

[25] = molecular target: MAGI2_2, Q86UL8
MAGI2_2, Q86UL8, sequence (Q86UL8 410-522): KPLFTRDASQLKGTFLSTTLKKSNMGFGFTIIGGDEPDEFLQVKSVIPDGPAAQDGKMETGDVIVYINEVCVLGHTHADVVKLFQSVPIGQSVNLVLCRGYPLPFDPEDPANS

[26] = molecular target: HTRA1, Q92743
HTRA1, Q92743, sequence (Q92743 360-477): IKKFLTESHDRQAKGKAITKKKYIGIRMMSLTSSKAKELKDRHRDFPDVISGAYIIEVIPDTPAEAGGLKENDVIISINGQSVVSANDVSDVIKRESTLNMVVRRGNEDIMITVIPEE

[27] = molecular target: LIMK2, P53671
LIMK2, P53671, sequence (P53671 143-248): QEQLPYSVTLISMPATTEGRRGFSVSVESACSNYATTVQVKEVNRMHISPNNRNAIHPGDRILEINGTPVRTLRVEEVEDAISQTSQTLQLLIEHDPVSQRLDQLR

[28] = molecular target: NHERF4_4, Q86UT5
NHERF4_4, Q86UT5, sequence (Q86UT5 464-550): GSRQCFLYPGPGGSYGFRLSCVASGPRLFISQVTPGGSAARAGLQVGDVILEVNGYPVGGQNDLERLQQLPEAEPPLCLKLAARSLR

| Binder | pKd [1] | pKd [2] | pKd [3] | pKd [4] | pKd [5] | pKd [6] | pKd [7] | pKd [8] | pKd [9] | pKd [10] | pKd [11] | pKd [12] | pKd [13] | pKd [14] | pKd [15] | pKd [16] | pKd [17] | pKd [18] | pKd [19] | pKd [20] | also measured |
| --- | --- | --- | --- | --- | --- | --- | --- | --- | --- | --- | --- | --- | --- | --- | --- | --- | --- | --- | --- | --- | --- |
| REEPDHSTEV [CCRL2, O00421] | below the threshold | below the threshold | below the threshold | below the threshold | 4.73 | below the threshold | below the threshold | 4.03 | 4.71 | below the threshold | below the threshold | below the threshold | below the threshold | below the threshold | below the threshold | 4.16 | 3.77 | 3.65 | below the threshold | 3.61 | pKd [21]: below the threshold; pKd [22]: 4.68; pKd [23]: 4.13; pKd [24]: 4.5; pKd [25]: below the threshold; pKd [26]: 4.44; pKd [27]: below the threshold; pKd [28]: below the threshold |
| EDPRVEVTQF [SLC22A9, Q8IVM8] | below the threshold | below the threshold | below the threshold | below the threshold | 5.39 | below the threshold | below the threshold | below the threshold | below the threshold | below the threshold | below the threshold | below the threshold | below the threshold | below the threshold | below the threshold | below the threshold | 5.02 | 4.61 | below the threshold | below the threshold | pKd [21]: below the threshold; pKd [22]: 4.86; pKd [23]: 5.36; pKd [24]: below the threshold; pKd [25]: below the threshold; pKd [26]: 3.49; pKd [27]: below the threshold; pKd [28]: below the threshold |
| RFQQRMQTHV [KIRREL1, Q96J84] | below the threshold | below the threshold | below the threshold | below the threshold | 3.85 | below the threshold | below the threshold | 3.52 | 4.32 | below the threshold | 3.69 | below the threshold | 5.37 | 4.14 | below the threshold | below the threshold | 4.35 | 3.57 | 3.52 | below the threshold | pKd [21]: below the threshold; pKd [22]: 3.74; pKd [23]: 4.16; pKd [24]: 4.44; pKd [25]: 5.49; pKd [26]: below the threshold; pKd [27]: below the threshold; pKd [28]: below the threshold |
| LAHVKHKEQI [AQP3, Q92482] | below the threshold | below the threshold | below the threshold | below the threshold | below the threshold | below the threshold | below the threshold | below the threshold | below the threshold | below the threshold | below the threshold | below the threshold | below the threshold | 3.79 | below the threshold | below the threshold | below the threshold | below the threshold | below the threshold | below the threshold | pKd [21]: below the threshold; pKd [22]: below the threshold; pKd [23]: below the threshold; pKd [24]: below the threshold; pKd [25]: below the threshold; pKd [26]: below the threshold; pKd [27]: below the threshold; pKd [28]: below the threshold |
| APIAGFSSFV [SDK2, Q58EX2] | below the threshold | below the threshold | 3.72 | below the threshold | 4.38 | below the threshold | below the threshold | 3.79 | 4.24 | below the threshold | below the threshold | below the threshold | 4.27 | below the threshold | below the threshold | 4.36 | 4.44 | 3.98 | below the threshold | 3.56 | pKd [21]: below the threshold; pKd [22]: 4.44; pKd [23]: below the threshold; pKd [24]: 3.86; pKd [25]: 3.5; pKd [26]: 4.51; pKd [27]: below the threshold; pKd [28]: below the threshold |
